Numbering of substitutions follows the chain as printed.
B1: CD3_WT (antibody, human IgG1, lambda)
heavy: not shown
light: QAVVTQEPSLTVSPGGTVTLTCRSSTGAVTTSNYANWVQQKPGQAPRGLIGGTNKRAPWTPARFSGSLLGDKAALTLSGAQPEDEAEYFCALWYSNLWVFGGGTKLTVLGQPKAAPSVTLFPPSSEELQANKATLVCLISDFYPGAVTVAWKADSSPVKAGVETTTPSKQSNNKYAASSYLSLTPEQWKSHRSYSCQVTHEGSTVEKTVAPTECS
notes: hIgG1, no Fc mutation; produced in HEK-293T-17SF; also called parental anti-CD3 IgG1; anti-CD3 monospecific hIgG1
B2: CD3_5 (antibody, human IgG1, lambda)
heavy: EVQLVESGGGLVQPGGSLKLSCAASGFTFNTYAMNWVRQASGKGLEWVGRIRSKYNNYATYYADSVKDRFTISRDDSKSTLYLQMNSLKTEDTAVYYCVRHGNFGNSYVSWFAYWGQGTLVTVSSASTKGPSVFPLAPSSKSTSGGTAALGCLVKDYFPEPVTVSWNSGALTSGVHTFPAVLQSSGLYSLSSVVTVPSSSLGTQTYICNVNHKPSNTKVDKRVEPKSCDKTHTCPPCPAPELCCGPSVFLFPPKPKDTLMISRTPEVTCVVVDVSHEDPEVKFNWYVDGVEVHNAKTKPREEQYCSCYRVVSVLTVLHQDWLNGKEYKCKVSNKALPAPIEKTISKAKGQPREPQVYTLPPSRDELTKNQVSLTCLVKGFYPSDIAVEWESNGQPENNYKTTPPVLDSDGSFFLYSKLTVDKSRWQQGNVFSCSVMHEALHNHYTQKSLSLSPGK
light: B1 light
notes: hIgG1
B3: CD3_6 (antibody, human IgG1, lambda)
heavy: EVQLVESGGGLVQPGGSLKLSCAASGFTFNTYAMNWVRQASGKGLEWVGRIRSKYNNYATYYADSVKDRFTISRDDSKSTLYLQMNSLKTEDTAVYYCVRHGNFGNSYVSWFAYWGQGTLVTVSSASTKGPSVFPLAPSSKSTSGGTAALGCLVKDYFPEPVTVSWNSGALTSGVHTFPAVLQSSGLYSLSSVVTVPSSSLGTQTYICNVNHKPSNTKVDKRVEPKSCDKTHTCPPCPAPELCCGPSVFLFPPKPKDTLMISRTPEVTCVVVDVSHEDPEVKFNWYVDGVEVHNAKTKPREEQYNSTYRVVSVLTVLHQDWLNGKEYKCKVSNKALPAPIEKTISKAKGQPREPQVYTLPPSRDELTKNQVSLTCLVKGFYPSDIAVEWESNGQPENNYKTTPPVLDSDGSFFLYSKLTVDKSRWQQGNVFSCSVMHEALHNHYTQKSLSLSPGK
light: B1 light
notes: hIgG1
B4: CD3_11 (antibody, human IgG1, lambda)
heavy: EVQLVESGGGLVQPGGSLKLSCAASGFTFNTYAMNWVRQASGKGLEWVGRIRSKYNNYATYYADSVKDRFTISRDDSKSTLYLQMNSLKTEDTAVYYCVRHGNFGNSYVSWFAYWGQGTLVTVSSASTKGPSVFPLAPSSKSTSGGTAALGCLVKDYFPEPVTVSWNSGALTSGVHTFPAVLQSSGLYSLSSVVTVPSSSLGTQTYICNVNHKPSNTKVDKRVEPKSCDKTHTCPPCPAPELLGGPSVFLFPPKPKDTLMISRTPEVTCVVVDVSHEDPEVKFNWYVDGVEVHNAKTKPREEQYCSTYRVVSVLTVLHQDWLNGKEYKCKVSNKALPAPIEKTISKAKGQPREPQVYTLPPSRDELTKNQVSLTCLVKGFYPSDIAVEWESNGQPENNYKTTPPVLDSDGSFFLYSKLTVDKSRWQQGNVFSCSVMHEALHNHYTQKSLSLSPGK
light: B1 light
notes: hIgG1
B5: CD3_10_YTE (antibody, human IgG1, lambda)
heavy: B2 heavy with C243L, C244G, M260Y, S262T, T264E, C305N
light: B1 light
notes: hIgG1
B6: CD3_7 (antibody, human IgG1, lambda)
heavy: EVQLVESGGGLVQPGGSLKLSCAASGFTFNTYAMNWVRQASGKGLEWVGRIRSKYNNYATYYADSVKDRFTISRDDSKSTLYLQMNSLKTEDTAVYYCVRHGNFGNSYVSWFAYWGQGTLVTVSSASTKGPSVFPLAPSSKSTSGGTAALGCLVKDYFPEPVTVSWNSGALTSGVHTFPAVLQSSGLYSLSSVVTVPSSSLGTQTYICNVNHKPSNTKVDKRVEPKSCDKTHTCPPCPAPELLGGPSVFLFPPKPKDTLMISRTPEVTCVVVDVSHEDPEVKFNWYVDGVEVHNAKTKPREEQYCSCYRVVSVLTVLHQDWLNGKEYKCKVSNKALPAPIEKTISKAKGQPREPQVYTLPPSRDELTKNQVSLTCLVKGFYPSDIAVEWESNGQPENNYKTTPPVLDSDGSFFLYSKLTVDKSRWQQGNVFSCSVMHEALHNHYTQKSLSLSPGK
light: B1 light
notes: hIgG1
B7: CD3_2_YTE (antibody, human IgG1, lambda)
heavy: B2 heavy with G245H, M260Y, S262T, T264E, D273G, V274L, S275R, S306G
light: B1 light
notes: hIgG1
B8: CD3_8_YTE (antibody, human IgG1, lambda)
heavy: B2 heavy with C243L, M260Y, S262T, T264E, C305N, C307T
light: B1 light
notes: hIgG1

Assays:
hCD3epsilon-FC antigen [1] = target: T1, hCD3epsilon-FC antigen (human, UniProt P07766 23-126); assay: SPR Biacore T200; hCD3epsilon-FC amine-coupled on CM5, IgG as analyte; design: unit not given here
T1 construct: immobilized by amine coupling on CM5; also called human CD3epsilon
T1 sequence (P07766 23-126 limits assumed): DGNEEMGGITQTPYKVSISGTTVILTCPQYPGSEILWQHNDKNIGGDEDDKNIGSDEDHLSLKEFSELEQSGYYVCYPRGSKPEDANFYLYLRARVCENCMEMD

hC1q [2] = target: T2, hC1q (human, UniProt P02745 23-245; P02746 28-253; P02747 29-245); assay: SPR Biacore T200; IgG amine-coupled on CM5, hC1q as analyte; response normalized to parental (=100)
T2 sequence (P02745 23-245 limits assumed, chain 1 of 3): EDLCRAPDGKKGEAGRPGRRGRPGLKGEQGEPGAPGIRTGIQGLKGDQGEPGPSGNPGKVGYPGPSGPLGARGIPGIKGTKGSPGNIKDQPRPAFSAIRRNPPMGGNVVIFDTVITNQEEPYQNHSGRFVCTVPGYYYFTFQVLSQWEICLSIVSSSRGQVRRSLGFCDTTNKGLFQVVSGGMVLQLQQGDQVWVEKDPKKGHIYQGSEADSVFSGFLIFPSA
T2 sequence (P02746 28-253 limits assumed, chain 2 of 3): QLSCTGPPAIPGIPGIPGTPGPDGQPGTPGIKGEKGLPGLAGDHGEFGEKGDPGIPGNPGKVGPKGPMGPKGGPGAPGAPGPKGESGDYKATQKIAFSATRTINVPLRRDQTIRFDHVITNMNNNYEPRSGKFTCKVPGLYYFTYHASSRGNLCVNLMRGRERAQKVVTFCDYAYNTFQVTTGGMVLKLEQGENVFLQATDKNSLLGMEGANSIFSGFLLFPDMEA
T2 sequence (P02747 29-245 limits assumed, chain 3 of 3): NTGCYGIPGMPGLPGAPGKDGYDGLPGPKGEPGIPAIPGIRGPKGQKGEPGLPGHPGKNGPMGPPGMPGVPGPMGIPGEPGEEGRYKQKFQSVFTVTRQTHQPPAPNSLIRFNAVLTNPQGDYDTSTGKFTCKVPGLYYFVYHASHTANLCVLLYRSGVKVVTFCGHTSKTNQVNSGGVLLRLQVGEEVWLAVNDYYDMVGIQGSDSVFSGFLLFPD
Experimental: (§1) Kinetics and binding capacity were measured on a BIAcore® T200 instrument (GE Healthcare, Glattbrugg, Switzerland) at room temperature, with proteins diluted in running buffer 10 mM NaP, 150 mM NaCl, 0.05% Tween 20, pH7.6. A CM5 sensor chip (Sensor Chip SA, GE Healthcare Life Sciences) was used to immobilized engineered immunoglobulins by amine coupling. Then, recombinant human hFcγR1a, or recombinant human hFcγR3a (F158V), or recombinant human hFcRn, or hC1q was used as the analyte.
(§2) Binding data were acquired by subsequent injection of analyte dilution series on the reference and measuring flow cells. Zero concentration samples (running buffer only) were included to allow double referencing during data evaluation. For data evaluation, doubled referenced sensorgrams were analyzed and the maximum response reached during the experiment was monitored. Maximum response describes the binding capacity of the surface in terms of the response at saturation. Finally, measured maximum responses were normalized to the one measured using parental immunoglobulin (not engineered).

recombinant human hFcRn = target: T3, recombinant human hFcRn (human, UniProt P55899 24-297; P61769 21-119); assay: SPR Biacore T200; IgG amine-coupled on CM5, hFcRn as analyte; response normalized to parental (=100)
T3 construct: FcRn is normally a heterodimer with it
T3 sequence (P55899 24-297 limits assumed, chain 1 of 2): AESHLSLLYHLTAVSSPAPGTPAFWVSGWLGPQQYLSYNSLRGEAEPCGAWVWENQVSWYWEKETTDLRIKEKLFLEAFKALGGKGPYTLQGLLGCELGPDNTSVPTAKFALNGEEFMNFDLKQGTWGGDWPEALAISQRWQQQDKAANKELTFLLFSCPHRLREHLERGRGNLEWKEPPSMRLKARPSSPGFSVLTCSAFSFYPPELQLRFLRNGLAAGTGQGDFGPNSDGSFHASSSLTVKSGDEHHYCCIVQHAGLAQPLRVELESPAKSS
T3 sequence (P61769 21-119 limits assumed, chain 2 of 2): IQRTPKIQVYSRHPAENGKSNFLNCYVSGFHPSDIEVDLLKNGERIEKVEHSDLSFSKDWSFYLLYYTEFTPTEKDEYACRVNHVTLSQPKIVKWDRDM
Experimental: as §1, §2

[3] = target: T4, recombinant human hFcγR1a (human, UniProt P12314 16-288, limits assumed); assay: SPR Biacore T200; IgG amine-coupled on CM5, receptor as analyte; response normalized to parental (=100);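 note: measured at room temperature in pH 7.6 phosphate buffer with Tween 20, double-referenced sensorgrams, maximum response taken as binding capacity at saturation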
T4 construct: recombinant, analyte in SPR; also called FcγRI
T4 sequence (P12314 16-288 limits assumed): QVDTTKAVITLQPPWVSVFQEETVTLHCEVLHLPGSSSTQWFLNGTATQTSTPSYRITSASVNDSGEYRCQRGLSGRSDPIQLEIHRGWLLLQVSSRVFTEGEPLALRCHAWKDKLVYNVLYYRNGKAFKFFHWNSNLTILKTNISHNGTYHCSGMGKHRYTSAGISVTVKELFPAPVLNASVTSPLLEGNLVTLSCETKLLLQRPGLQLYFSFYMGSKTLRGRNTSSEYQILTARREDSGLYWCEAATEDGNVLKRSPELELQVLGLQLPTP
Experimental: as §1, §2

[4] = target: T5, recombinant human hFcγR3a (F158V) (human, UniProt P08637 17-208); assay: as above
T5 construct: also called FcγRIII
T5 sequence (P08637 17-208 F176V): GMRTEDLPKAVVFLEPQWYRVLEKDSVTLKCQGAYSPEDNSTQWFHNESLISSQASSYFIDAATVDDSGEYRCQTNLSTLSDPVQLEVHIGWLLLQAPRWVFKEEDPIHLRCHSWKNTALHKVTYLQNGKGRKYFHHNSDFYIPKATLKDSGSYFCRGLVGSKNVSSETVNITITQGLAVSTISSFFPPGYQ
Experimental: as §1, §2

hCD3epsilon-FC antigen [5] = target: T1, hCD3epsilon-FC antigen; assay: SPR Biacore T200; hCD3epsilon-FC amine-coupled on CM5, IgG as analyte; 1:1 model, apparent KD (bivalent analyte)
Experimental: A CM5 sensor chip (Sensor Chip SA, GE Healthcare Life Sciences) was used to immobilize hCD3epsilon-FC antigen by amine coupling. Then, engineered anti-CD3 hIgG1 were used as the analyte.
Binding data were acquired by subsequent injection of analyte dilution series on the reference and measuring flow cells. Zero concentration samples (running buffer only) were included to allow double referencing during data evaluation. For data evaluation, doubled referenced sensorgrams were analyzed by applying a 1:1 binding model analysis to generate the equilibrium dissociation constant (KD). Binding constant described Table 7 are considered as apparent KD since immunoglobulins used as analyte are bivalent for the immobilized antigen. In addition, maximum response reached during the experiment was monitored. Maximum response describes the binding capacity of the surface in terms of the response at saturation. Finally, measured maximum responses were normalized to the one measured using parental immunoglobulin (not engineered).

hC1q [6] = target: T2, hC1q; assay: SPR max response, normalized to parental (=100)
Experimental: as §1, §2

[7] = target: T5, recombinant human hFcγR3a (F158V); assay: SPR max response, normalized to parental (=100)
Experimental: as §1, §2

| Binder | Maximum response at 125 nM hIgG1 (hCD3epsilon-FC antigen [1]) | Maximum response at 20 nM hC1q (RU) (hC1q [2]) | Maximum response at 1840 nM hFcRn (RU) (recombinant human hFcRn) | Maximum response at 100 nM hFcγR1a (RU) [3] | Maximum response at 300 nM hFcγR3a F158V (RU) [4] | Kd (hCD3epsilon-FC antigen [5]) | binding result (hC1q [6]) | binding result [7] |
| --- | --- | --- | --- | --- | --- | --- | --- | --- |
| B1 | 392 | 100 RU | 100 RU | 100 RU | 100 RU | 2.32 nM | – | – |
| B2 | 365 | – | – | 7 RU | 22 RU | 3.76 nM | no binding (tested: 20 nM hC1q) | – |
| B3 | 338 | 33 RU | 136 RU | 13 RU | 17 RU | 2.38 nM | – | – |
| B4 | – | – | 92 RU | 19 RU | – | – | no binding (tested: 20 nM hC1q) | – |
| B5 | – | – | 280 RU | – | – | – | no binding (tested: 20 nM hC1q) | – |
| B6 | 367 | 2 RU | 80 RU | 21 RU | 5 RU | 2.27 nM | – | – |
| B7 | 371 | – | 340 RU | 3 RU | – | 2.3 nM | – | no binding (tested: 300 nM hFcγR3a F158V) |
| B8 | – | – | 604 RU | 2 RU | – | – | no binding (tested: 20 nM hC1q) | – |

— US20250011428A1 (Novartis, published 2025)
